Values quoted from earlier work, collected in paper PMC3713533.

Target: VWF73 VWF73 (Homo sapiens) (UniProt P04275)
UniProt P04275, sequence (P04275 1596-1668): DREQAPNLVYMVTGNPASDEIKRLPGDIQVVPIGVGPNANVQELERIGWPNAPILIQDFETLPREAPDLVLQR

Kd: 0.136 µM
Substance: ADAMTS13 TSP1 repeat 1 (from UniProt Q76LX8)
